Results as given in paper PMC2891831, “Insight into the Mechanisms of Adenovirus Capsid Disassembly from Studies of Defensin Neutralization” (PLoS Pathogens, 2010).
Entries after “also recorded” stand apart in the source; their conditions may differ.

Legend:
GYAR virus = assay: Infection assay, GYAR virus; assay type: cell-based, human adenovirus; details: 5 µM HD5, A549 cells, at least three independent experiments
Experimental: Figure 6 Neutralization determinants are located in fiber and penton base. A) Schematic of chimeric viruses. Capsid proteins are depicted in the order in which they are encoded in the virus genome for HAdV-5 (white) and HAdV-19c (grey). The variable residues in fiber (GYAR and DTET) are indicated for each construct. B) Each of the chimeric viruses was incubated with 5 µM (grey) or 10 µM (black) HD5 and assessed for infectivity on A549 cells. Data are the mean of the percent infectivity compared to control cells infected with each virus in the absence of defensin for at least three independent experiments ± SD. The upper limit for quantification of this assay is 200%.
(§1) We then combined the GYAR substitution with the PB substitution in a single construct (PB/GYAR).
(§2) Prior to use in this assay, each virus stock was titrated on A549 cells. A virus concentration was chosen to produce 50–70% maximal signal in the absence of defensin as described below. […] In parallel, wells were infected with two-fold serial dilutions of each virus to establish a standard curve for quantification with an upper limit of 200%. […] Total well fluorescence above background was quantified with ImageJ software. For each virus, samples were quantified by nonlinear regression against the standard curve using Prism software (GraphPad Software, Inc., La Jolla, CA).

HAdV species B2 = assay: Infection assay (hexon staining), HAdV species B2; assay type: cell-based, human adenovirus; details: 15 µM HD5, A549 cells, hexon staining at ~48 h, vs. no defensin
Experimental: (§3) To determine whether sensitivity to α-defensins is a general property of HAdVs, serotypes representative of HAdV species A–F were tested for infectivity in the presence of 15 µM HD5 or HNP1 (Figure 1). Wild type HAdVs rather than vectors were used for these studies, and infectivity was assessed by staining for hexon production. […] These studies indicate that sensitivity to α-defensins is species specific. In addition, particular HAdV serotypes are not equally sensitive to all defensins, indicating defensin sequence specificity as well.
(§4) Figure 1 Sensitivity to neutralization by alpha-defensins is AdV species specific. HAdVs were incubated with 15 µM HD5 (A) or HNP1 (B) and assessed for infectivity on A549 cells. Data are the mean of the percent infectivity compared to control cells infected with each virus in the absence of defensin for at least three independent experiments ± SD. The upper limit for quantification of this assay is 200%. […]
as §2, with “cells.” for “cells. A virus concentration was chosen to produce 50–70% maximal signal in the absence of defensin as described below.”

HAdV-19c = assay: Virus-defensin binding assay, HAdV-19c; design: species or system human adenovirus
Text: Figure 2 HD5 binding to HAdV. A) HD5 binding to a representative defensin-sensitive serotype (HAdV-5) was quantified by an equilibrium-binding assay. Data are the mean of the number of HD5 molecules bound per virion at the indicated HD5 concentrations from at least three independent experiments ± SD. Binding curves were fitted using Prism software. B) Binding of HD5 to additional defensin-sensitive (HAdV-7p) and resistant (HAdV-19c, -25p, -51p) serotypes expressed as a percent of HD5 bound to HAdV-5. Data are the mean of two or three independent experiments ± SD.
We assessed HD5 binding to additional serotypes after incubation with 20 µM HD5 (Figure 2B). The sensitive serotype HAdV-7p bound 69.3±15.9% of the amount of HD5 bound to HAdV-5 in parallel samples; whereas, the corresponding values for the resistant serotypes HAdV-19c, -25p, and -51p were 32.5±7.5%, 3.3±5.8%, and 24.6±12.0%, respectively.
To measure HD5 binding to HAdV-5 and -51, HD5 was serially diluted in PBS and mixed with 5 µg purified virus. […] The other half of each sample was used to make a standard curve for quantification. […] Virus bands were quantified using ImageQuant NT software (GE Healthcare). […] The amount of HD5 in the centrifuged samples was then quantified against the standard curve using Prism software. […]

PB/GYAR = assay: Virus-defensin binding assay, PB/GYAR; design: species or system human adenovirus; details: studies equivalent to Figure 2B, data not shown
Experimental: as §1
To measure HD5 binding to HAdV-5 and -51, HD5 was serially diluted in PBS and mixed with 5 µg purified virus. After 1 h incubation on ice, one half of each sample was separated by ultracentrifugation [209,000×g (avg.) for 2 hrs at 4°C] on a discontinuous gradient consisting of 300 µl of 30% nycodenz and 200 µl of 80% nycodenz in 50 mM NaCl, 20 mM HEPES pH 7.4 using an SW55ti rotor with adaptors (Beckman Coulter, Inc.). The visible virus band was collected. The other half of each sample was used to make a standard curve for quantification. All samples were boiled in reducing loading buffer and separated using a 16% PAGEgel (Expedeon, Inc., San Diego, CA) or 10–20% Tris-Tricine gel (Bio-Rad, Hercules, CA). The gels were stained with Deep Purple (GE Healthcare) and imaged on a Typhoon Trio. Virus bands were quantified using ImageQuant NT software (GE Healthcare). The amount of HD5 in each sample was normalized to protein V and hexon. The amount of HD5 in the centrifuged samples was then quantified against the standard curve using Prism software. Affinity and stoichiometry were estimated from the average data of at least three independent experiments using Prism software.

HAdV-D serotypes = assay: Infection assay (hexon staining), HAdV species D; assay type: cell-based, human adenovirus; details: 15 µM HD5, A549 cells, hexon staining at ~48 h, vs. no defensin; upper limit 200%
Experimental: as §3, §4
as §2, with “cells.” for “cells. A virus concentration was chosen to produce 50–70% maximal signal in the absence of defensin as described below.”

B1: HD5: human alpha-defensin; synthetic, obtained from Peptides International; three disulfide bonds (PDB 1ZMP) (peptide, UniProt Q01523 20-94, looked up)
Defensin alpha 5: ESLQERADEATTQKQSGEDNQDLAISFAGNGLSALRTSGSQARATCYCRTGRCATRESLSGVCEISGRLYRLCCR
modifications: Defensin-5
With B1 the “sensitivity to HD5 neutralization compared to HAdV-5” value (GYAR virus) was “less sensitive”, the “sensitivity to neutralization (infectivity)” value (HAdV species B2) was “sensitive” and the “HD5 bound, percent of HD5 bound to HAdV-5” value (HAdV-19c; 20 µM HD5, mean of two or three independent experiments ± SD) was 32.5±7.5%. For the same molecule, the “level of HD5 binding (in words)” value (HAdV-19c; HAdV-19c) was “only a low level of binding”, the “amount of HD5 bound compared to HAdV-5” value (PB/GYAR) was “did not detect a reduction in the amount of HD5 bound; also recorded: did not result in a noticeable reduction in overall HD5 binding” and the “sensitivity to neutralization (infectivity)” value (HAdV-D serotypes) was “completely resistant to HD5-mediated neutralization and, in most cases, infection is actually enhanced”.
